According to patent US8815529B2, “Sulfotransferase assay” (Research & Diagnostics Systems, Inc., priority 2011, dated 2014):

Columns and labels:
Assay type in all cases: biochemical
[1] = gPAPP activity: Mg2+ and pH dependence; details: 0.025 μg gPAPP, 25 nmol PAP
Description: (§1) In the following examples, the gPAPP used was recombinant mouse gPAPP expressed in CHO cells as an N-terminal His-tagged recombinant protein containing amino acids from E51 to K356, created by R & D Systems. The sequence was based on accession number NP 808398 from the National Center for Biotechnology Information. The chondroitin sulfate (CS) and p-nitrophenol (pNP) were obtained from Sigma Aldrich. The PAPS was prepared by R & D Systems using recombinant S. cerevisiae ATP sulurylase and P. chrysogenum APS kinase. The APS kinase was also prepared by R & D Systems. Recombinant human SULT1A1, CHST3, CD73, TNAP and Malachite Green Phosphate Detection Kit were from R & D Systems. Protein concentrations were quantified using the Bradford assay as described by Bradford, M. M., A rapid and sensitive method for the quantitation of microgram quantities of protein utilizing the principle of protein-dye binding. Anal Biochem. 1976. […] Phosphate levels were determined using the Malachite Green Phosphate Detection Kit available from R & D Systems, according to the package instructions. […]
First, the activity of gPAPP in the presence of Mg^2+ was tested by combining 0.025 μg gPAPP, 25 nmol PAP and increasing amounts of Mg^2+ in 50 μL of assay buffer of 25 mM Tris at pH 7.5. […] In a second experiment, the activity of gPAPP was evaluated at various pH levels. […]

[2] = Coupling capacity of gPAPP; details: 10 mM Mg2+, pH 7.5
Description: as §1
In this example, the coupling capacity of gPAPP was determined. […] The coupling capacity of gPAPP was determined by combining 1 μg gPAPP with increasing amounts of PAP, in the presence or absence of 0.5 mM PAPS in 50 μL assay buffer containing 10 mM Mg^2+ at pH 7.5 for either 20 or 40 minutes. […]

[3] = SULT1A1 enzyme dose curve, phosphatase-coupled sulfotransferase assay; details: for rate of phosphate release: 0.25 mM PAPS, 0.25 mM pNP
Description: In the following examples, the gPAPP used was recombinant mouse gPAPP expressed in CHO cells as an N-terminal His-tagged recombinant protein containing amino acids from E51 to K356, created by R & D Systems. The sequence was based on accession number NP 808398 from the National Center for Biotechnology Information. The chondroitin sulfate (CS) and p-nitrophenol (pNP) were obtained from Sigma Aldrich. The PAPS was prepared by R & D Systems using recombinant S. cerevisiae ATP sulurylase and P. chrysogenum APS kinase. The APS kinase was also prepared by R & D Systems. Recombinant human SULT1A1, CHST3, CD73, TNAP and Malachite Green Phosphate Detection Kit were from R & D Systems. Protein concentrations were quantified using the Bradford assay as described by Bradford, M. M., A rapid and sensitive method for the quantitation of microgram quantities of protein utilizing the principle of protein-dye binding. Anal Biochem. 1976. Vol 72, Page 248-254, the relevant portions of which are hereby incorporated by reference. Phosphate levels were determined using the Malachite Green Phosphate Detection Kit available from R & D Systems, according to the package instructions. All examples were performed in a buffer of 25 mM Tris at pH 7.5.
A series of reactions was performed by combining various amounts of SULT1A1 with 0.25 mM PAPS and 0.25 mM pNP and with either 1 μg gPAPP alone, or both 1 μg gPAPP and 0.1 μg CD73 in 50 μL of Tris buffer containing 10 mM of MgCl2 at pH 7.5. […] Since gPAPP and CD73 together release two equivalents of phosphate from each PAP, the specific activity of SULT1A1 was averaged to 40.0±1.9 pmol/min/μg. This specific activity is consistent with the known results obtained using radioisotope assays.

[4] = CHST3 enzyme dose curve, gPAPP-coupled assay; details: 10 mg/ml CS, 0.5 mM PAPS, 1 μg gPAPP
Description: as §1
First, the optimal concentration for CS was visually determined to be >5 mg/ml and the optimal concentration for PAPS was visually determined to be about 0.5 mM using FIGS. 10A and 10B by finding the substrate concentration corresponding to the highest point in the curves. […]

B1: gPAPP: recombinant mouse gPAPP expressed in CHO cells, N-terminal His-tagged, amino acids E51 to K356 (protein, UniProt Q80V26 51-356, looked up, fragment)
chain: EVASDGGTVDLREMLAVAVLAAERGGDEVRRVRESNVLHEKSKGKTREGADDKMTSGDVLSNRKMFYLLKTAFPNVQINTEEHVDASDKEVIVWNRKIPEDILKEIAAPKEVPAESVTVWIDPLDATQEYTEDLRKYVTTMVCVAVNGKPVLGVIHKPFSEYTAWAMVDGGSNVKARSSYNEKTPKIIVSRSHAGMVKQVALQTFGNQTSIIPAGGAGYKVLALLDVPDMTQEKADLYIHVTYIKKWDICAGNAILKALGGHMTTLNGEEISYTGSDGIEGGLLASIRMNHQALVRKLPDLEKSGH
modifications: N-terminal His tag
notes: recombinant mouse gPAPP expressed in CHO cells, N-terminal His-tagged, amino acids E51 to K356
- Mg2+ concentration at which maximum activity was achieved ([1]; 25 mM Tris pH 7.5): greater than 10 mM
- pH of optimal activity ([1]; 10 mM Mg2+): ~7.5
- coupling capacity (PAP completely hydrolysed by 1 μg gPAPP) ([2]; 20 minute reaction): 8 nmol
- coupling capacity (PAP completely hydrolysed by 1 μg gPAPP) ([2]; 40 minute reaction): 15 nmol

B2: SULT1A1: recombinant human sulfotransferase SULT1A1 from R & D Systems (protein, UniProt P50225 1-295, looked up)
Sulfotransferase 1A1: MELIQDTSRPPLEYVKGVPLIKYFAEALGPLQSFQARPDDLLISTYPKSGTTWVSQILDMIYQGGDLEKCHRAPIFMRVPFLEFKAPGIPSGMETLKDTPAPRLLKTHLPLALLPQTLLDQKVKVVYVARNAKDVAVSYYHFYHMAKVHPEPGTWDSFLEKFMVGEVSYGSWYQHVQEWWELSRTHPVLYLFYEDMKENPKREIQKILEFVGRSLPEETVDFVVQHTSFKEMKKNPMTNYTTVPQEFMDHSISPFMRKGMAGDWKTTFTVAQNERFDADYAEKMAGCSLSFRSEL
- specific activity ([3]; averaged over gPAPP alone and gPAPP plus CD73): 40.0 ± 1.9 pmol/min/µg
- rate of phosphate release ([3]; coupled to both gPAPP and CD73): 83.7 pmol/min/µg
- rate of phosphate release ([3]; coupled to gPAPP alone): 38.1 pmol/min/µg

B3: CHST3: recombinant human carbohydrate sulfotransferase 3 from R & D Systems (protein, UniProt Q7LGC8 1-479, looked up)
Carbohydrate sulfotransferase …: MEKGLTLPQDCRDFVHSLKMRSKYALFLVFVVIVFVFIEKENKIISRVSDKLKQIPQALADANSTDPALILAENASLLSLSELDSAFSQLQSRLRNLSLQLGVEPAMEAAGEEEEEQRKEEEPPRPAVAGPRRHVLLMATTRTGSSFVGEFFNQQGNIFYLFEPLWHIERTVSFEPGGANAAGSALVYRDVLKQLFLCDLYVLEHFITPLPEDHLTQFMFRRGSSRSLCEDPVCTPFVKKVFEKYHCKNRRCGPLNVTLAAEACRRKEHMALKAVRIRQLEFLQPLAEDPRLDLRVIQLVRDPRAVLASRMVAFAGKYKTWKKWLDDEGQDGLREEEVQRLRGNCESIRLSAELGLRQPAWLRGRYMLVRYEDVARGPLQKAREMYRFAGIPLTPQVEDWIQKNTQAAHDGSGIYSTQKNSSEQFEKWRFSMPFKLAQVVQAACGPAMRLFGYKLARDAAALTNRSVSLLEERGTFWVT
- specific activity [4]: 1110 pmol/min/µg
